Results on six molecules are retold here after publication PMC4520770 (Journal of molecular biology, 2015).

The target in this assay is KSBcl-2 (Kaposi's sarcoma-associated herpesvirus Bcl-2 homolog), c-myc-tagged (Kaposi's sarcoma-associated herpesvirus …, UniProt P90504 1-175). Put plainly: fluorescence polarisation.

5/6‑FAM = 5/6-fluorescein amidite

B1: BL6-22 (peptide)
peptide: {5/6‑FAM}-RPIIWIGQEISRVGDRENAYYAR-NH2
Turning to B1, the Kd was 1100 nM.

B2: KL6-7 (peptide)
peptide: {5/6‑FAM}-RPQIWIHQGLQRLGDGLNAYYAR-NH2
B2: binding was characterised by a dissociation constant (Kd) of 1.6 nM.

B3: KScomp (peptide)
peptide: {5/6‑FAM}-RPNIWLTQRLQRTGDGLNAYYAR-NH2
Consider B3, for which the Kd came to 13 nM.

B4: BL6-22_Y4eK (peptide)
peptide: {5/6‑FAM}-RPIIWIGQEISRVGDRENAYKAR-NH2
For B4, binding was put at a Kd of 750 nM.

B5: KL6-7_Y4eK (peptide)
peptide: {5/6‑FAM}-RPQIWIHQGLQRLGDGLNAYKAR-NH2
For the molecule B5, the dissociation constant (Kd) came to 2.9 nM.

B6: KL6-7_D3fA (peptide)
peptide: {5/6‑FAM}-RPQIWIHQGLQRLGAGLNAYYAR-NH2
B6: the equilibrium dissociation constant (Kd) was 180 nM.
